± gives the standard deviation of the averaged measurements.
System: ATP
Assay: switch fluorescence ratio, 500 uM ATP over buffer (Cy3 cluster intensity, sum of 5 cycles each) (fold (ratio)); higher = stronger signal-on switching upon ATP binding; sequences stand for … in TCGTCGGCAGCGTCAGATGTGTATAAGAGACAGTTTTTTTTTTTTTTTTTTTTTTTTT…TC
Details: aptamer strand: ATP DNA aptamer (quencher-CACCTGGGGGAGTATTGCGGAGGAAGG + anchor), 100 nM annealed; ATP concentration: 500 uM
Procedure, shortened: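 After annealing to 100 nM quencher-labelled ATP aptamer, Cy3-labelled switching-strand clusters on a modified Illumina MiSeq flow-cell were imaged in selection buffer. A second image followed after 15 min with 500 uM ATP at 22 °C, and five such buffer/ATP cycles were done, each separated by NaOH stripping and re-annealing. The fluorescence ratio, averaged per switch-domain sequence, is summed target-cycle over summed buffer-cycle Cy3 intensity per cluster, with clusters outside 100-1000 RFU excluded.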
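Further: ATP exposure 15 min at 22 °C before imaging.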

Row | Sequence | switch fluorescence ratio
1 | ATGGGGCATC | 0.9907 ± 0.0082
2 | TTTGTTTTAG | 0.983 ± 0.031
3 | CTAGAGTGAG | 1.02 ± 0.049
4 | AGTCGGTTAA | 1.02 ± 0.046
5 | ACTTTTAGGT | 1.0193 ± 0.00024
6 | TGAGTTTCGG | 0.9869 ± 0.0098
7 | GTACGGGGTT | 0.993 ± 0.023
8 | ATATTTTTTA | 0.9761 ± 0.0095
9 | TCGAGGCGGA | 0.985 ± 0.049
10 | AGGGGAGGCA | 1.02 ± 0.089
11 | TAGAAGGGTT | 1 ± 0.024
12 | CGATGGATGG | 1.01 ± 0.037
13 | TTTTTAATAG | 0.9855 ± 0.002
14 | ATTTGTGTGT | 0.967 ± 0.036
15 | AGGGCGGTGT | 0.991 ± 0.027
16 | AGGAAGGGT | 0.9978 ± 0.0079
17 | CGATGAATTG | 0.981 ± 0.023
18 | CCCAGGGGA | 1.91 ± 1
19 | GGCATCCAGG | 1.38 ± 0.064
20 | CGGCTTAAGT | 1.01 ± 0.035
21 | ATCGTTTTTT | 0.973 ± 0.018
22 | CGTTCGGGTT | 0.989 ± 0.044
23 | AGCTGAGGGG | 1.01 ± 0.012
24 | TATTCTTTGA | 1.02 ± 0.03
25 | AATGAGACAG | 1 ± 0.02

Row | Sequence | switch fluorescence ratio
26 | GGGGTTAGAG | 0.991 ± 0.033
27 | TGAAATAAG | 0.979 ± 0.026
28 | TTAGTGATTA | 0.996 ± 0.014
29 | TTACTCTATA | 1.06 ± 0.016
30 | ATATATAGCC | 1.01 ± 0.022
31 | ATGGGGGTCG | 0.98 ± 0.05
32 | GACCGGATTC | 1.06 ± 0.11
33 | CGCTGTCAGC | 1.002 ± 0.0037
34 | GGGGATTGGG | 0.987 ± 0.028
35 | ATACGCCGGT | 1.013 ± 0.004
36 | GCTATTTGCG | 1 ± 0.022
37 | GGGTCCGAGA | 1.31 ± 0.4
38 | GAGAATAATA | 0.988 ± 0.032
39 | GCCAATGTGG | 1 ± 0.051
40 | CAGAAGGGCG | 1 ± 0.036
41 | GTGGAAGAGT | 0.999 ± 0.018
42 | TTCAGAAGGT | 1.01 ± 0.051
43 | CAAATTGCAG | 0.967 ± 0.026
44 | CGAGTAACGC | 1.03 ± 0.015
45 | CCGAATTGTA | 1.03 ± 0.016
46 | CAGAGGGCGG | 0.981 ± 0.047
47 | TCGTTTGAGT | 0.997 ± 0.021
48 | CGAGTCCAAG | 1.01 ± 0.026
49 | CGTTGGCAGC | 1.03 ± 0.028
50 | GGTGAAGTCA | 1 ± 0.024

Row | Sequence | switch fluorescence ratio
51 | GCTGTAATAT | 1.11 ± 0.015
52 | TTGCAATTAT | 1.26 ± 0.18
53 | AGAGACGGCA | 1.01 ± 0.032
54 | TTCAAATTTA | 0.995 ± 0.025
55 | TTATCAATGG | 1.01 ± 0.078
56 | TGCTCATTCG | 1.01 ± 0.024
57 | TAGAGTAGCT | 1 ± 0.035
58 | GATTAAAGGT | 1.01 ± 0.025
59 | GCGAGTGCGG | 1.02 ± 0.018
60 | TGGCACGGGC | 1.02 ± 0.047
61 | TTGTAACGGA | 1.01 ± 0.039
62 | AGGGGTTGGT | 0.983 ± 0.027
63 | TTATACGCGG | 0.991 ± 0.026
64 | TTTTAAGTCG | 1.05 ± 0.014
65 | GGCGAGTGAG | 1.03 ± 0.029
66 | ATGCCAAAGG | 1.01 ± 0.055
67 | AAAGCTTATT | 0.99822 ± 0.00097
68 | GCCATCGTCG | 1.01 ± 0.044
69 | CATTTTTTAG | 1.01 ± 0.016
70 | GGGCGAAGCG | 0.986 ± 0.035
71 | AAGTTTAGTA | 1.01 ± 0.029
72 | CGGGGGAGTC | 1.02 ± 0.027
73 | GGAGGGTTGT | 0.979 ± 0.04
74 | TAATGGGGGA | 1.01 ± 0.016
75 | TGGGTTCGAA | 0.98 ± 0.013

Row | Sequence | switch fluorescence ratio
76 | TCGAGGACTA | 0.999 ± 0.032
77 | TTTGTTAGGT | 1 ± 0.031
78 | AGGTTTTTAT | 1.06 ± 0.16
79 | ATTTTGTTGG | 1.11 ± 0.2
80 | TCGGCGGACA | 1 ± 0.023
81 | TAAAGGGTAT | 0.988 ± 0.032
82 | GATTATGAGT | 1.02 ± 0.018
83 | GGGGAAAACG | 0.989 ± 0.015
84 | TTTTGAACGA | 1.01 ± 0.035
85 | GATCTGAAGT | 1.02 ± 0.012
86 | TCACTTGGGT | 0.996 ± 0.036
87 | TAAGTCATTG | 0.985 ± 0.049
88 | TTTTTTCTGA | 1.01 ± 0.028
89 | CGGGAGGTGT | 1.029 ± 0.0037
90 | TATTTTTAGG | 1 ± 0.032
91 | ACGGTCGTTA | 0.975 ± 0.027
92 | ACAGCCTGCC | 1.3 ± 0.07
93 | AAATTGGGTG | 1.02 ± 0.048
94 | TGGTTAAGGA | 1 ± 0.013
95 | TCAAATGGTA | 1.006 ± 0.0037
96 | ACTATCGGCA | 1.02 ± 0.029
97 | CGGATTGTGT | 1.018 ± 0.0055
98 | GGGGACTTTT | 0.99 ± 0.026
99 | CGAAGACGTA | 1.05 ± 0.06
100 | TTCGTTCGGT | 1.06 ± 0.07

From the supplement of paper PMC10126150
